According to PMC12102759:

B1: TET3 peptide 458-473 (Methylcytosine dioxygenase TET3), 16-mer library wild type / NSP3 SUD-M (ORF1ab Nsp3c SUD-M, residues 1356-1493) (parent)
chain 1: DPMAELEQLLGSASDY
chain 2: LPSIISNEKQEILGTVSWNLREMLAHAEETRKLMPVCVETKAIVSTIQRKYKGIKIQEGVVDYGARFYFYTSKTTVASLINTLNDLNETLVTMPLGYVTHGLNLEEAARYMRSLKVPATVSVSSPDAVTAYNGYLTSS
B2: NEK9 peptide 736-751 (Serine/threonine-protein kinase Nek9), 16-mer library wild type / NSP9 (ORF1ab Nsp9, residues 4141-4253) (parent)
chain 1: NSSGLSIGTVFQSSSP
chain 2: NNELSPVALRQMSCAAGTTQTACTDDNALAYYNTTKGGRFVLALLSDLQDLKWARFPKSDGTGTIYTELEPPCRFVTDTPKGPKVKYLYFIKGLNNLNRGMVLGSLAATVRLQ
B3: PEX5 peptide 240-255 (Peroxisomal targeting signal 1 receptor), 16-mer library wild type / PEX14 Pex14 (PEX14 PEX14, residues 16-84) (parent)
chain 1: AEQWAAEFIQQQGTSD
chain 2: TPGSENVLPREPLIATAVKFLQNSRVRQSPLATRRAFLKKKGLTDEEIDMAFQQSGTAADEPSSLGPAT
B4: NOTCH4 peptide 1606-1621 (Neurogenic locus notch homolog protein 4), 16-mer library wild type / NSP9 (ORF1ab Nsp9, residues 4141-4253) (parent)
chain 1: QGAWLGAPEPWEPLLD
chain 2: B2 chain 2
B5: AZIN2 peptide 1-16 (Antizyme inhibitor 2), 16-mer library wild type / NSP3 ADRP (ORF1ab Nsp3b ADRP, residues 1023-1192) (parent)
chain 1: MAGYLSESDFVMVEEG
chain 2: not shown

Variants of: B1
Experiment: not given
Conditions: with NSP3 SUD-M (ORF1ab Nsp3c SUD-M, residues 1356-1493); bait immobilised on MaxiSorp plates (10 µg), library pre-cleared on GST, 2 h binding at 4 °C, five washes; one round per day, days 1-4; value from days 2 and 3; keep out of graded; scale: average fractional NGS count over selection days 2 and 3

In order of rising screen value:
1. chain 1 E5Q  0
2. chain 1 E5K  0
3. chain 1 A13D  0
4. chain 1 A13N  0
5. chain 1 A13V  0
6. chain 1 A13E  0
7. chain 1 Y16A  0
8. chain 1 Y16H  0
9. chain 1 Q8M  0
10. chain 1 Q8H  0
11. chain 1 Q8T  0
12. chain 1 Q8P  0
13. chain 1 Q8K  0
14. chain 1 Q8R  0
15. chain 1 Q8S  0
16. chain 1 A4L  0
17. chain 1 A4N  0
18. chain 1 S14W  0
19. chain 1 S14F  0
20. chain 1 S14I  0
21. chain 1 L10Q  0
22. chain 1 L10T  0
23. chain 1 L10P  0
24. chain 1 L10R  0
25. chain 1 P2A  0
26. chain 1 P2H  0
27. chain 1 P2W  0
28. chain 1 P2R  0
29. chain 1 P2D  0
30. chain 1 D15N  0
31. chain 1 D15K  0
32. chain 1 D15G  0
33. chain 1 L6S  0
34. chain 1 L6W  0
35. chain 1 L6K  0
36. chain 1 L6M  0
37. chain 1 L6R  0
38. chain 1 E7G  0
39. chain 1 E7I  0
40. chain 1 E7Y  0
41. chain 1 E7T  0
42. chain 1 E7K  0
43. chain 1 E7N  1.67e-05

Variants of: B2
Experiment: not given
Conditions: with NSP9 (ORF1ab Nsp9, residues 4141-4253); bait immobilised on MaxiSorp plates (10 µg), library pre-cleared on GST, 2 h binding at 4 °C, five washes; one round per day, days 1-4; value from days 2 and 3; keep out of graded; scale: average fractional NGS count over selection days 2 and 3

In order of falling screen value:
1. chain 1 P16K  0.000119
2. chain 1 S13T  0.000105
3. chain 1 S14D  7.14e-05

Variants of: B3
Experiment: proteomic peptide phage display deep mutational scan (ProP-PD DMS): M13 P8 16-mer library selected against immobilised GST-tagged bait for four days (rounds), NGS of the eluted pools per day and pseudo-replica
Conditions: with PEX14 Pex14 (PEX14 PEX14, residues 16-84); bait immobilised on MaxiSorp plates (10 µg), library pre-cleared on GST, 2 h binding at 4 °C, five washes; one round per day, days 1-4; value from days 2 and 3; keep out of graded; scale: average fractional NGS count over selection days 2 and 3

In order of falling screen value:
1. chain 1 E7N  0.000491
2. chain 1 A5V  0.000326
3. chain 1 A6Q  0.000319
4. chain 1 E7M  0.000317
5. chain 1 E7S  0.000242
6. chain 1 A6H  0.000232
7. chain 1 E7R  0.000213
8. chain 1 A5P  0.000159
9. chain 1 E7F  0.00013
10. chain 1 A1F  0.00013
11. chain 1 A1L  0.000125
12. chain 1 E7P  0.000118
13. chain 1 E2Q  5.27e-05
14. chain 1 A5G  0
15. chain 1 A1G  0

Variants of: B4
Experiment: not given
Conditions: with NSP9 (ORF1ab Nsp9, residues 4141-4253); bait immobilised on MaxiSorp plates (10 µg), library pre-cleared on GST, 2 h binding at 4 °C, five washes; one round per day, days 1-4; value from days 2 and 3; keep out of graded; scale: average fractional NGS count over selection days 2 and 3

In order of rising screen value:
1. chain 1 W4I  0
2. chain 1 W4H  0
3. chain 1 W4T  0
4. chain 1 W4Q  0
5. chain 1 W4M  0
6. chain 1 P8K  0
7. chain 1 A3G  0
8. chain 1 L5K  0
9. chain 1 L5Y  0
10. chain 1 L5H  0
11. chain 1 L5M  0
12. chain 1 G2W  0
13. chain 1 G2A  0
14. chain 1 G2H  0
15. chain 1 G2Y  0
16. chain 1 G2T  0
17. chain 1 G2L  0
18. chain 1 G6H  0
19. chain 1 G6S  0
20. chain 1 G6R  0
21. chain 1 G6Q  0
22. chain 1 G6W  0
23. chain 1 G6Y  0
24. chain 1 G6L  0
25. chain 1 G6N  0
26. chain 1 G6F  0
27. chain 1 L14N  1.14e-05
28. chain 1 G2R  1.21e-05
29. chain 1 L14D  2.68e-05
30. chain 1 A3E  2.97e-05
31. chain 1 W11K  3.16e-05
32. chain 1 L5V  3.16e-05
33. chain 1 Q1V  3.52e-05
34. chain 1 W11R  3.62e-05
35. chain 1 L5P  3.64e-05
36. chain 1 A3H  3.7e-05
37. chain 1 L14E  4.45e-05
38. chain 1 E9H  4.98e-05
39. chain 1 L15W  5.05e-05
40. chain 1 E9R  5.73e-05
41. chain 1 Q1G  5.8e-05
42. chain 1 G6E  6.33e-05
43. chain 1 L15G  6.9e-05
44. chain 1 W4F  7.26e-05
45. chain 1 Q1S  7.35e-05
46. chain 1 E12R  8.31e-05

Variants of: B5
Experiment: not given
Conditions: with NSP3 ADRP (ORF1ab Nsp3b ADRP, residues 1023-1192); bait immobilised on MaxiSorp plates (10 µg), library pre-cleared on GST, 2 h binding at 4 °C, five washes; one round per day, days 1-4; value from days 2 and 3; keep out of graded; scale: average fractional NGS count over selection days 2 and 3

In order of falling screen value:
1. chain 1 V13N  6.59e-05
2. chain 1 M12D  6.55e-05
3. chain 1 M12P  6.03e-05
4. chain 1 E14G  5.95e-05
5. chain 1 V13P  5.36e-05
6. chain 1 S8N  5.33e-05
7. chain 1 G16W  5.19e-05
8. chain 1 V13E  4.94e-05
9. chain 1 V13W  4.62e-05
10. chain 1 V11R  4.17e-05
11. chain 1 S8F  4.02e-05
12. chain 1 G16M  3.8e-05
13. chain 1 E14A  3.37e-05
14. chain 1 V13S  3.26e-05
15. chain 1 E14H  3.26e-05
16. chain 1 F10W  2.93e-05
17. chain 1 G3S  2.71e-05
18. chain 1 D9T  2.66e-05
19. chain 1 D9H  2.63e-05
20. chain 1 E15V  2.58e-05
21. chain 1 S8Q  2.27e-05
22. chain 1 D9I  2.23e-05
23. chain 1 V11K  2.1e-05
24. chain 1 E15A  1.82e-05
25. chain 1 V13F  1.65e-05
26. chain 1 V11N  1.5e-05
27. chain 1 D9A  1.5e-05
28. chain 1 S8D  1.43e-05
29. chain 1 F10S  1.39e-05
30. chain 1 L5M  1.33e-05
31. chain 1 V13A  1.13e-05
32. chain 1 E14V  1.13e-05
33. chain 1 Y4F  1.08e-05
34. chain 1 E14T  1.06e-05
35. chain 1 V11Q  1.04e-05
36. chain 1 E7T  0
37. chain 1 E7A  0
38. chain 1 E7S  0
39. chain 1 A2G  0
40. chain 1 A2M  0
41. chain 1 A2H  0
42. chain 1 S6W  0
43. chain 1 S6Q  0
44. chain 1 S6T  0
45. chain 1 S6G  0
46. chain 1 S6H  0
47. chain 1 M12K  0
48. chain 1 M12G  0
49. chain 1 M12W  0
50. chain 1 M12Q  0
51. chain 1 G3P  0
52. chain 1 G3T  0
53. chain 1 E15Y  0
54. chain 1 E15K  0
55. chain 1 E15W  0
56. chain 1 E15F  0
57. chain 1 E15M  0
58. chain 1 F10D  0
59. chain 1 F10R  0
60. chain 1 V13G  0
